Reference: paper PMC5267525, “Sec3 promotes the initial binary t-SNARE complex assembly and membrane fusion” (Nature Communications, 2017)

B1: His6-Sso2 (cytosolic domain, a.a. 1–270) [yeast] / GST-tagged Sec9 C-terminal SNARE domain (a.a. 414–651) [yeast] (parent)
chain 1: MSNANPYENNNPYAENYEMQEDLNNAPTGHSDGSDDFVAFMNKINSINANLSRYENIINQIDAQHKDLLTQVSEEQEMELRRSLDDYISQATDLQYQLKADIKDAQRDGLHDSNKQAQAENCRQKFLKLIQDYRIIDSNYKEESKEQAKRQYTIIQPEATDEEVEAAINDVNGQQIFSQALLNANRRGEAKTALAEVQARHQELLKLEKTMAELTQLFNDMEELVIEQQENVDVIDKNVEDAQQDVEQGVGHTNKAVKSARKARKNKIRC
chain 2: EEARQQQEEDEAVDEIKQEIKFTKQSSVASTRNTLKMAQDAERAGMNTLGMLGHQSEQLNNVEGNLDLMKVQNKVADEKVAELKKLNRSILAVHVSNPFNSKRRRREREEQLKNRKIEEKLMREQTSQQLSQSTQRIEGAMNANNNISEVRERYQRKNVLEKAKRYQFENDEEDDEMELEIDRNLDQIQQVSNRLKKMALTTGKELDSQQKRLNNIEESTDDLDINLHMNTNRLAGIR

Variants of: B1
Assay: GST pull-down time course (SDS-PAGE, Coomassie blue staining, band quantification)
Conditions: with GST-tagged Sec9 C-terminal SNARE domain (a.a. 414–651) [yeast]; time point 5 min; parent: 0; read off a plot

response [%] | Variant
34 | chain 1 D170G V171S N172S Q174G

Same assay, conditions: with GST-tagged Sec9 C-terminal SNARE domain (a.a. 414–651) [yeast]; time point 10 min; parent: 9; read off a plot

response [%] | Variant
67 | chain 1 D170G V171S N172S Q174G

Same assay, conditions: with GST-tagged Sec9 C-terminal SNARE domain (a.a. 414–651) [yeast]; time point 20 min; parent: 32; read off a plot

response [%] | Variant
79 | chain 1 D170G V171S N172S Q174G

Same assay, conditions: with GST-tagged Sec9 C-terminal SNARE domain (a.a. 414–651) [yeast]; time point 40 min; parent: 29; read off a plot

response [%] | Variant
100 | chain 1 D170G V171S N172S Q174G

Same assay, conditions: with GST-tagged Sec9 C-terminal SNARE domain (a.a. 414–651) [yeast]; time point 70 min; parent: 48; read off a plot

response [%] | Variant
92 | chain 1 D170G V171S N172S Q174G

Same assay, conditions: with GST-tagged Sec9 C-terminal SNARE domain (a.a. 414–651) [yeast]; time point 110 min; parent: 72; read off a plot

response [%] | Variant
96 | chain 1 D170G V171S N172S Q174G

Same assay, conditions: with GST-tagged Sec9 C-terminal SNARE domain (a.a. 414–651) [yeast]; time point 170 min; read off a plot

response [%] | Variant
96 | chain 1 D170G V171S N172S Q174G

Same assay, conditions: with GST-tagged Sec9 C-terminal SNARE domain (a.a. 414–651) [yeast]; time point 240 min; parent: 100; read off a plot

response [%] | Variant
100 | chain 1 D170G V171S N172S Q174G
